In article PMC2908990 (Molecular cell, 2009):
Each block holds one binder with its values, some of them ahead of it.

Target: BiP, murine sequence (hamster BiP mutated to the murine sequence) (murine, UniProt P20029 20-655)
Assay: SEC

Chain of BiP, murine sequence (hamster BiP mutated to the murine sequence) (P20029 20-655, change not shown): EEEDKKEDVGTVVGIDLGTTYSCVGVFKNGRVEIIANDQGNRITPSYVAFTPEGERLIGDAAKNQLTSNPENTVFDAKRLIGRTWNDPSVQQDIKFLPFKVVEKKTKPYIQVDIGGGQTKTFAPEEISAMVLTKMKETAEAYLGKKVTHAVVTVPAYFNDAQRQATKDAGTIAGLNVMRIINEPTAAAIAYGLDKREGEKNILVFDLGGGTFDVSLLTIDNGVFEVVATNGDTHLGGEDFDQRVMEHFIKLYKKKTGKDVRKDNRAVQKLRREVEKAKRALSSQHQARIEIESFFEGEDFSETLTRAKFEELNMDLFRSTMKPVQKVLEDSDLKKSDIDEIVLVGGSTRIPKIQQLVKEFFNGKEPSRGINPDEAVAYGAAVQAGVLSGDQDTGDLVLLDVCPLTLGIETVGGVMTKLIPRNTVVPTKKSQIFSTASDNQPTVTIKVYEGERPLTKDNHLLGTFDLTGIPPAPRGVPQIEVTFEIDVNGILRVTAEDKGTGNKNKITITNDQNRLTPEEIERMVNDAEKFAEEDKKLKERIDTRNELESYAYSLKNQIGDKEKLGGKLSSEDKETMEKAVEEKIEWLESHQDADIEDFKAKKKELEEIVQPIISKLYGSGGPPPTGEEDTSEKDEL

Kd: 4.2 ± 0.4 µM
koff: 7.83e-05 s⁻¹
kon: 6.83 M⁻¹ s⁻¹
B1: CH1 domain of the murine IgG1 heavy chain, reduced (domain or fragment)
chain: not shown
modifications: internal disulfide bridge not formed (reduced)

Kd: 12.6 ± 0.7 µM
koff: 8.33e-05 s⁻¹
kon: 4.33 M⁻¹ s⁻¹
B2: CH1 domain of the murine IgG1 heavy chain, oxidized (internal disulfide bridge formed) (domain or fragment)
chain: not shown
modifications: internal disulfide bridge formed (oxidized; Cys25-Cys80)
